For 63 sequences, Kd and IC50 results are on record in the Immune Epitope Database (IEDB).

pIC50, pKd: −log10 of the molar value.

In one assay the target is HLA-A*69:01. The assay is described as follows: IEDB peptide-MHC binding, purified MHC/direct/fluorescence; filed as Kd, often an IC50 or EC50 that approximates it; ≥ and ≤ were set here for values at or beyond the usual limits of such assays.
The target in assay [1] is HLA-A*02:01. Described as above.
Another assay concerns the target HLA-A*30:02. Briefly: IEDB peptide-MHC binding, purified MHC/competitive/radioactivity; filed as Kd, often an IC50 or EC50 that approximates it; ≥ and ≤ were set here for values at or beyond the usual limits of such assays.
In a further assay the target is HLA-A*23:01. The assay is described as above.
Assay [2] concerns the target HLA-A*02:01. The assay is described as follows: IEDB peptide-MHC binding, purified MHC/competitive/fluorescence; ≥ and ≤ were set here for values at or beyond the usual limits of such assays.
The target in the next assay is HLA-A*01:01. The assay is described as follows: IEDB peptide-MHC binding, purified MHC/competitive/radioactivity; filed as Kd, often an IC50 or EC50 that approximates it; ≥ and ≤ were set here for values at or beyond the usual limits of such assays.
The target of another assay is HLA-A*24:02. The assay is described as above.
In a further assay the target is HLA-A*26:01. The description is as above.
For another assay, the target named is HLA-A*02:03. The description is as above.
In another assay the target is HLA-A*02:06. The description is as above.
In another assay the target is HLA-A*02:02. Described as above.
[3] abbreviates: source organism: Pseudomonas aeruginosa.
Setting [4] is: source organism: Dengue virus 3 Sri Lanka/1266/2000.
The mark [5] stands for this setting: source organism: Dengue virus 2 Jamaica/1409/1983.
The mark [6] stands for this setting: source organism: Salmonella enterica subsp. enterica serovar Typhimurium.
Where [7] appears, read: source organism: Dengue virus 4 Philippines/H241/1956.
The mark [8] stands for this setting: source organism: Mycobacterium tuberculosis.
[9] abbreviates: source organism: Dengue virus 1 Brazil/97-11/1997.
The mark [10] stands for this setting: source organism: Dengue virus 3 Martinique/1243/1999.
Where [11] appears, read: source organism: Zaire ebolavirus.
Where [12] appears, read: source organism: Dengue virus 4 Dominica/814669/1981.
Where [13] appears, read: source organism: Giardia lamblia ATCC 50803.
[14] abbreviates: source organism: Vaccinia virus Copenhagen.
[15] abbreviates: source organism: Vaccinia virus WR.
Where [16] appears, read: source organism: Sudan ebolavirus.
Setting [17] is: source organism: Vibrio vulnificus YJ016.
The mark [18] stands for this setting: source organism: Aromatoleum aromaticum.
Setting [19] is: source organism: SARS coronavirus Tor2.
The mark [20] stands for this setting: source organism: Mammarenavirus tacaribeense.

For ACMDGFEVV, the pKd with HLA-A*69:01 (setting [3]) was 5.57; with HLA-A*02:01 [1] (setting [3]) it was 6.54.
Take AGPISQHNY: in the assay with HLA-A*30:02 (setting [4]), the pKd was no more than 4.11.
With AILGDTAWDF, in the assay with HLA-A*23:01 (setting [5]), the negative logarithm of the Kd (pKd) is 5.43.
In turn, ALAPAPAEV had a pIC50 with HLA-A*02:01 [2] (source organism: Homo sapiens) of 7.28.
With ALSMADIFI, the negative logarithm of the Kd (pKd) was 5.97 with HLA-A*69:01 (setting [6]) and 6.97 with HLA-A*02:01 [1] (setting [6]).
As to ASEAVNDSRF, the negative logarithm of the Kd (pKd) with HLA-A*01:01 (setting [7]) is no more than 4.50.
AVGIGLRLV: the pKd in the assay with HLA-A*69:01 (setting [8]) was no more than 4.70; in the assay with HLA-A*02:01 [1] (setting [8]) it was 6.89.
In the case of AWLVHRQWFL, the negative-log Kd (pKd) with HLA-A*23:01 (setting [5]) is 7.01.
For the sequence CWCNSTSTW, the pKd in the assay with HLA-A*24:02 (setting [5]) is 5.90; with HLA-A*23:01 (setting [5]) it was 6.00.
On to DNPYKTWAY, for which the pKd in the assay with HLA-A*26:01 (setting [9]) is 5.19.
For the sequence DVIPMVTQM, in the assay with HLA-A*26:01 (source organism: Dengue virus 2 Peru/IQT2913/1996), the negative-log Kd (pKd) is 7.19.
For DWIPLALTI, in the assay with HLA-A*24:02 (setting [5]), the pKd was 7.80.
Consider EDLIEWAME, for which the negative logarithm of the IC50 (pIC50) with HLA-A*02:01 [2] (source organism: Vaccinia virus) was no more than 4.02.
Consider ENPYKTWAYH, for which, in the assay with HLA-A*26:01 (setting [10]), the negative-log Kd (pKd) is no more than 4.47.
For the sequence EQYQQLREA, the negative-log IC50 (pIC50) in the assay with HLA-A*02:01 [2] (setting [11]) was no more than 3.66.
ESQMLIPKSY: the pKd is 5.92 with HLA-A*30:02 (setting [12]) and 5.08 in the assay with HLA-A*01:01 (setting [12]).
Regarding EVKQDEDGSF, the pKd with HLA-A*26:01 (setting [7]) was 7.16.
With FAHELEMLC, the pKd in the assay with HLA-A*69:01 (setting [6]) was 6.14; in the assay with HLA-A*02:01 [1] (setting [6]) it was 5.93.
In the case of FMYEDALKS, the negative logarithm of the Kd (pKd) is 5.87 with HLA-A*69:01 (setting [13]) and 7.36 with HLA-A*02:01 [1] (setting [13]).
Take GTTVVKVKY: the pKd with HLA-A*30:02 (setting [7]) was 6.61.
Take GVIHNSTLQ: in the assay with HLA-A*02:01 [2] (setting [11]), the negative logarithm of the IC50 (pIC50) was no more than 3.92.
Take GYATQTVGPW: the pKd in the assay with HLA-A*24:02 (setting [7]) was 5.89; with HLA-A*23:01 (setting [7]), 6.26.
Consider HHQDTGEES, for which the negative-log IC50 (pIC50) in the assay with HLA-A*02:01 [2] (setting [11]) was no more than 3.65.
Regarding IGNENYLDY, the pKd with HLA-A*30:02 (setting [9]) was 6.02.
ILDNQGRVV: the pKd with HLA-A*02:01 [1] (source organism: Venezuelan equine encephalitis virus) is 5.92.
Consider IYKAPSENW, for which the pKd with HLA-A*24:02 (source organism: Homo sapiens) was 7.41.
In the case of KAALSEGVY, in the assay with HLA-A*30:02 (setting [12]), the negative-log Kd (pKd) was 7.82.
On to KLAGGVAVL, for which the negative logarithm of the IC50 (pIC50) in the assay with HLA-A*02:01 [2] (source organism: Porphyromonas gingivalis) is 6.92.
Consider KLTDSLSSQ, for which the pIC50 with HLA-A*02:01 [2] (setting [14]) was 4.35.
Regarding KLTLKGMSY, the pKd in the assay with HLA-A*30:02 (source organism: Dengue virus 1 Singapore/S275/1990) was 6.28.
As for LEELLPAVS, the pIC50 with HLA-A*02:01 [2] (setting [11]) was no more than 3.85.
Regarding LIGIEILNT, in the assay with HLA-A*02:01 [2] (setting [15]), the pIC50 is no more than 3.83.
As to LSSTRVPNY, the negative logarithm of the Kd (pKd) with HLA-A*30:02 (setting [7]) was 6.71; with HLA-A*01:01 (setting [7]) it was 5.69.
MFGGVSWMI: the negative-log Kd (pKd) is 7.11 with HLA-A*24:02 (setting [12]) and 7.38 with HLA-A*23:01 (setting [12]).
NFLEVEDYGF: the negative-log Kd (pKd) was no more than 4.50 in the assay with HLA-A*24:02 (setting [7]) and 7.26 with HLA-A*23:01 (setting [7]).
For the sequence NLEGSGVST, the pIC50 with HLA-A*02:01 [2] (setting [16]) was 4.17.
NNNTHHQDT had a pIC50 in the assay with HLA-A*02:01 [2] (setting [11]) of no more than 3.60.
For the sequence QIGDIIIAV, the negative-log IC50 (pIC50) with HLA-A*02:01 [2] (source organism: Variola virus) is 6.53.
The sequence QLLEAVYGN had a negative logarithm of the IC50 (pIC50) with HLA-A*02:01 [2] (setting [14]) of 4.67.
For RGSGQVGTY, the negative logarithm of the Kd (pKd) in the assay with HLA-A*30:02 (setting [5]) was 6.68.
For RILGPDCCI, the negative logarithm of the IC50 (pIC50) with HLA-A*02:01 [2] (setting [16]) is 4.19.
For the sequence RQLQREGLV, the figures for the negative logarithm of the Kd (pKd) with HLA-A*69:01 (setting [17]) and with HLA-A*02:01 [1] (setting [17]) were no more than 4.70 and no more than 5.30, respectively.
In the case of SEELSFTVV, in the assay with HLA-A*02:01 [2] (setting [11]), the negative logarithm of the IC50 (pIC50) is no more than 3.84.
In the case of SISKSNAKC, the pIC50 with HLA-A*02:01 [2] (setting [14]) is 4.45.
In the case of SKIPGGAMY, the pKd with HLA-A*30:02 (setting [10]) is 6.44.
The sequence SVMATEEPT had a negative logarithm of the IC50 (pIC50) with HLA-A*02:01 [2] (setting [16]) of no more than 3.94.
With SYLAGAGLL, in the assay with HLA-A*24:02 (setting [5]), the negative-log Kd (pKd) is 7.71.
TIGEWAFWE: the pIC50 with HLA-A*02:01 [2] (setting [11]) was no more than 3.61.
TSETFSMGLL: in the assay with HLA-A*01:01 (setting [7]), the pKd is 6.62.
TSQVPKLLL gave a pIC50 in the assay with HLA-A*02:01 [2] (source organism: Variola virus) of 4.32.
Take TWRDMAHTLI: the pKd with HLA-A*24:02 (setting [10]) was 6.41.
As for TYQLWTALV, the pKd with HLA-A*24:02 (setting [4]) is 7.32; with HLA-A*23:01 (setting [4]) it was 7.23.
Turning to VLEGFEGDL, the values for the pKd with HLA-A*69:01 (setting [18]) and with HLA-A*02:01 [1] (setting [18]) were no more than 4.70 and 4.77, respectively.
As to VSLTCSNTIF, the negative-log Kd (pKd) in the assay with HLA-A*01:01 (setting [4]) is 5.11.
Consider VSQHNYRPGY, for which the values for the negative-log Kd (pKd) in the assay with HLA-A*30:02 (setting [5]) and with HLA-A*01:01 (setting [5]) were 6.41 and 5.17, respectively.
Take VVHGYFTEV: the negative logarithm of the Kd (pKd) in the assay with HLA-A*02:03 (setting [19]) was 8.49; in the assay with HLA-A*02:06 (setting [19]) it was 8.58; in the assay with HLA-A*02:02 (setting [19]), 7.76.
As to VVYHDDDNTT, the negative logarithm of the Kd (pKd) with HLA-A*02:03 (setting [15]) was 4.90; with HLA-A*02:06 (setting [15]) it was 5.41; with HLA-A*02:02 (setting [15]) it was 5.73.
Regarding WHLGKLELDF, in the assay with HLA-A*23:01 (setting [9]), the pKd is 6.53.
For the sequence WTEAKMLLD, the negative-log Kd (pKd) with HLA-A*01:01 (setting [9]) is 6.03.
YKTWAYHGSY: in the assay with HLA-A*30:02 (setting [5]), the pKd is 5.37.
Consider YMVTDKTAYI, for which the negative-log Kd (pKd) was 9.56 with HLA-A*02:03 (setting [15]), 8.21 with HLA-A*02:06 (setting [15]) and 9.65 with HLA-A*02:02 (setting [15]).
For YNCKCCWFA, the values for the negative-log Kd (pKd) in the assay with HLA-A*02:03 (setting [20]), in the assay with HLA-A*02:06 (setting [20]) and in the assay with HLA-A*02:02 (setting [20]) were no more than 4.50, no more than 4.11 and 4.80, respectively.
With YTYPDSLEE, in the assay with HLA-A*02:01 [2] (setting [11]), the negative logarithm of the IC50 (pIC50) is no more than 3.58.
